Experimental data from EP1444995A1.

Molecular target: endogenous Translokin of mouse NIH-3T3 cells (mouse) (UniProt Q8CEE0)
Assay: cell-based or functional assay

UniProt Q8CEE0, sequence (Q8CEE0 whole entry): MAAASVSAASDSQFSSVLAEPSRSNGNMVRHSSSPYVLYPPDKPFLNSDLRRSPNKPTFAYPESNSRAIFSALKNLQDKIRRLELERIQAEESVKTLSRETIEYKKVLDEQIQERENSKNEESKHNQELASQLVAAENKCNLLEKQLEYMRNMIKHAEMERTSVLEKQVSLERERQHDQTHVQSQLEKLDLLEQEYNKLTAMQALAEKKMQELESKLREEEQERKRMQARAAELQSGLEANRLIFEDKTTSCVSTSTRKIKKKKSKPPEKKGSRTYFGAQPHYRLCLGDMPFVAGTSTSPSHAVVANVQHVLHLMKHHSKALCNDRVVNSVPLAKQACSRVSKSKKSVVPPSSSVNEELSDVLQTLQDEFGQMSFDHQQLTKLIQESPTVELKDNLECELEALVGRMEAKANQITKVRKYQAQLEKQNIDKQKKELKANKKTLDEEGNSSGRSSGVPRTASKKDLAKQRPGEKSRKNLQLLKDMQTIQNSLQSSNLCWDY

Substance: HA-tagged FGF-2 (18 kDa) (ligand)
- FGF-2 nuclear accumulation in NIH-3T3 cells after Translokin siRNA: 80%
